This is an account of results in patent US20070224174A1.

For the test, the target named is murine Axl receptor tyrosine kinase on precursor natural killer (pNK) cells (mouse) (UniProt Q00993). Nature of the test: cell-based or functional assay.
Chain of UniProt Q00993 (Q00993 19-888): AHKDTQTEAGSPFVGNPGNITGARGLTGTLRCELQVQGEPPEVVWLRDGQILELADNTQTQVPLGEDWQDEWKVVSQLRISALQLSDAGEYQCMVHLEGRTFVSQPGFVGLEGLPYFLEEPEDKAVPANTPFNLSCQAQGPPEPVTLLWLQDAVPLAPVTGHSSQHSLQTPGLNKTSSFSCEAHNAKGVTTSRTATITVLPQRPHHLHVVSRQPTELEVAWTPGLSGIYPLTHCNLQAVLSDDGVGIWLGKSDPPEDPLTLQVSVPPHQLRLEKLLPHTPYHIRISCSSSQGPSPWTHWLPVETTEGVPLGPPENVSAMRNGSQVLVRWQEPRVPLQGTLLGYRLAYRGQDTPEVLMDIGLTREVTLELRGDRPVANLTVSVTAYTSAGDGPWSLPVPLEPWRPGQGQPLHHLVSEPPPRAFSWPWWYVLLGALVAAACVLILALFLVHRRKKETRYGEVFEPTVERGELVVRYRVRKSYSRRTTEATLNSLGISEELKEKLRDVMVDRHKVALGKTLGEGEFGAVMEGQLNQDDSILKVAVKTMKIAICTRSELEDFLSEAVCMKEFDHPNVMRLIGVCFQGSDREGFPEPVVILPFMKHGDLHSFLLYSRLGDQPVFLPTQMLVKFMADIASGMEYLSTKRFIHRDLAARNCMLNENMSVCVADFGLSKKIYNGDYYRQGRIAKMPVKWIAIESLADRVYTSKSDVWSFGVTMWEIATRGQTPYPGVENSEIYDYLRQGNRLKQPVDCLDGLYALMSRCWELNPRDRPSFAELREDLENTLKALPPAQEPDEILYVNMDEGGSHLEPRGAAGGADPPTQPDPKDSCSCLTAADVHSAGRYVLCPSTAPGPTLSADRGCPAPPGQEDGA

In the case of “murine Gas6 protein secreted from the murine Gas6 transfectant (NIH3T3 transfected with pcDNA3.1-Gas6) (from UniProt Q61592 28-674) (ligand)”, the degree of differentiation of pNK cells into mNK cells (FACS), co-culture with murine Gas6 transfectant against control groups worked out at 47%.
